The source of these data is patent US20160102367A1 (TRUSTEES OF COLUMBIA UNIVERSITY IN THE CITY OF NEW YORK, published 2016).

Non-standard residues stand in square brackets, D forms with d. No end group written: not given here. *: point of attachment. Biotin = O=C1N[C@H]2[C@H](CS[C@H]2CCCCC(=O)*)N1; pY = N[C@@H](Cc1ccc(OP(=O)(O)O)cc1)C(=O)O

Experiment in all cases: streptavidin-biotin peptide pull down, anti-GST Western blot
Assay [1] addresses T1, GST-FYN-SH2 (wild type FYN SH2 domain, codons 148-231, N-terminal GST tag) (UniProt P06241 148-231).
T1 construct: range 148-231; Expressed in E. coli Rosetta 2(DE3) and purified on glutathione Sepharose; also called GST-SH2-FYN; GST-FYN SH2 domain; not shown: N-terminal GST tag from the pGEX4-T1 vector
As for the experimental part: (§1) GST-tagged FYN SH2 domain proteins were purified by binding them to immobilized glutathione Sepharose beads (Thermo scientific) and eluting them with 50 mM reduced Glutathione, 50 mM Tris, pH 7.4, 150 mM NaCl, 5% glycerol, 5 mM β-mercaptoethanol. Protein expression and purity were assessed by Coomassie staining. Binding assay was performed with Pull-Down Biotinylated Protein-protein Interaction Kit (Thermo scientific) according to the manufacturer's instructions using an amino acid 527-537 FYN biotinylated peptide (biotin-[…])(SEQ ID NO: 1); an amino acid 527-537 pY531 FYN biotinylated peptide (biotin-TEPQpYQPGENL)(SEQ ID NO: 2) and an amino acid 527-537 […] FYN biotinylated peptide (biotin-[…])(SEQ ID NO: 3) (Anaspec Inc). Synthetic biotinylated peptides were incubated with purified GST-FYN SH2 domain, mutant FYN SH2 domain or GST alone for 1 h at 4° C. Interacting proteins were resolved on 10% SDS-polyacrylamide gel electrophoresis (SDS-PAGE) and transferred to a PVDF membrane and subjected to Western blot with an anti-GST antibody.
(§2) In addition, structure model analysis of FYN and FYN mutant proteins further supported this hypothesis. (See FIG. 4C which is a molecular ribbon representation of wild type FYN protein structure showing the positioning of the FYN SH2 domain and the C terminal Tyr531 phosphosite and FIG. 4D which illustrates structure modeling of FYN Tyr531His, FYN Arg176Cys and FYN Leu174Arg mutant proteins.) The interaction between GST-FYN-SH2 recombinant proteins and biotinylated C-terminal FYN peptides encompassing the position Tyr531 was analyzed. In these assays, wild type GST-FYN-SH2 was effectively pulled down with a Tyr531 phosphopeptide, but not with the corresponding unphosphorylated sequence or with a peptide containing a Tyr531His substitution. […]

The target in a further assay is T2, GST-SH2-FYN Leu174Arg (Homo sapiens (Human), UniProt P06241 148-231).
T2 construct: also called GST-FYN-SH2 L174R; not shown: The N-terminal GST tag and the pGEX4-T1 linker
T2 sequence (P06241 148-231 L174R limits assumed): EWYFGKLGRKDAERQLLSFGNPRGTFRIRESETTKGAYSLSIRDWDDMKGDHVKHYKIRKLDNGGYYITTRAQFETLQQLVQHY
Here is the method:
as §1, §2

For another assay, the target named is T3, GST-SH2-FYN Arg176Cys (Homo sapiens (Human), UniProt P06241 148-231).
T3 construct: also called GST-FYN-SH2 R176C; not shown: The N-terminal GST tag and the pGEX4-T1 linker
T3 sequence (P06241 148-231 R176C limits assumed): as the sequence (P06241 148-231 L174R limits assumed) above, with R27L, R29C counted along it
Here is the method: as §1, §2

T1 sequence (P06241 148-231): as the sequence (P06241 148-231 L174R limits assumed) above, with R27L counted along it

B1: amino acid 527-537 Y51H FYN biotinylated peptide (biotin-TEPQHQPGENL) (peptide)
peptide: Biotin-TEPQHQPGENL
notes: also called mutant Tyr531His FYN C-terminal peptide
For the molecule B1, the binding result in assay [1] was “no binding”.

B2: amino acid 527-537 pY531 FYN biotinylated peptide (biotin-TEPQpYQPGENL) (peptide)
peptide: Biotin-TEPQ[pY]QPGENL
notes: Synthetic peptide (Anaspec Inc); also called Tyr531 phosphopeptide; P-Tyr531 FYN C-terminal peptide
On to B2, for which the binding result with GST-SH2-FYN Leu174Arg and with GST-SH2-FYN Arg176Cys was “no binding” each time.
